Experimental data as given in patent US6627617.
pKd: −log10 of the molar value.

Key:
[1] = tested on: Rep68H6 (wt Rep68) (Adeno-associated virus 2); assay: EMSA; conditions: apparent Kd; 40 mM KCl, 10 mM HEPES pH 7.5, poly dIdC, 25 C
[2] = tested on: D412A-68 D412A (Adeno-associated virus 2); assay: EMSA; conditions: apparent Kd, same as wt; 40 mM KCl, 10 mM HEPES pH 7.5, poly dIdC, 25 C

AAV terminal repeat hairpin with double-stranded trs (32P-TR)
pKd [1]: 8.52 | pKd [2]: 8.52
